We go through two substances from US20180036405A1.

Assay [1] concerns the target human dimeric EGFR (EGFR.mFc) (human). As to the kind of experiment: SPR 37C, mAb captured by anti-human Fc, EGFR.mFc analyte.
In assay [2] the target is EGFR on A431 epidermoid carcinoma cells (human) (UniProt P00533). Description: cell-based or functional assay.
The target in assay [3] is human monomeric EGFR (EGFR.mmh) (human) (UniProt P00533). Description: SPR 37C, mAb captured by anti-human Fc, EGFR.mmh analyte.

For “Control II: a commercially available fully human monoclonal anti-EGFR antibody designated as ABX-EGF”, in assay [1], the Kd (as a rule, the equilibrium constant for the complex coming apart) stood at 42.3 pM and the t1/2 stood at 3.3 h.
“Control I: a chimeric anti-EGFR antibody with heavy and light chain variable sequences of "mAb 225" as set forth in U.S. Pat. No. 7,060,808”: in assay [1], the Kd is 30.3 pM, the koff (usually the rate constant with which the complex falls apart) was 0.000108 s⁻¹, the kon (usually a measure of how fast the partners come together) is 3.55e+06 M⁻¹ s⁻¹ and the t1/2 worked out at 1.78 h. In assay [2], this substance came in with an ADCC EC50 of 1.86e-12 Molar, an IC50 of A431 Proliferation of 3.35e-10 Molar and a Maximum Cell Killing (%) of 24%. Moreover, in assay [3], the Kd is 4680 pM, the off-rate (koff) was 0.00738 s⁻¹, the kon worked out at 1.58e+06 M⁻¹ s⁻¹ and the t1/2 is 2 min.
